Source: US20250382622A1 (UNIVERSIT T BERN, published 2025)

Molecular target: T1, human Claudin-3 (human, UniProt O15551 1-220)
T1 sequence: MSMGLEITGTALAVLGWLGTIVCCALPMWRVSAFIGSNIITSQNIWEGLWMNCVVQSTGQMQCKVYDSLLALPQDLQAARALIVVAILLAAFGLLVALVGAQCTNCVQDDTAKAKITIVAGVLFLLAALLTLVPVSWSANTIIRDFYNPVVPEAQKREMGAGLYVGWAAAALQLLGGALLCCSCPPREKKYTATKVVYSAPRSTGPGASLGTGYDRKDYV
Assay: cell-based or functional assay

B1: GalNAc functionalized UB-VS003 (antibody, mouse IgG2a, kappa, V domains shown)
VH: EVQLQQSGPELVKPGGSMKISCKASGYSFTGYTMNWVKQSHGKNLEWIGLINPYNDGTNYNQKFKGKATLTVDKSSSTAYMELLSLTSEDSAVYYCSKKGGGYGGTWFAYWGQGTLVTVSA
VL: DIVMSQSPSSLAVSVGEKVTMSCKSSPSLLYSNNQKNYLAWYQQKPGQSPKLLIYWASTRESGVPDRFTGSGSGTDFTLTISSVKAEDLAVYYCQQYYSFPYTFGGGTKLEIKR
modifications: reacted with 25 equivalents of DBCO-PEG4-NHS, then with 100 equivalents of Trebler GalNAc-Azide; modified residues and chain not stated
claudin-3/beta-actin ratio by western blot, human hepatocytes, 24 h, 1 nM antibody: ~45 % of control
claudin-3/beta-actin ratio by western blot, human hepatocytes, 24 h, 30 nM antibody: ~30 % of control
claudin-3/beta-actin ratio by western blot, human hepatocytes, 24 h, 100 nM antibody: ~10 % of control
